In article PMC10723116:

Target: H3K9me3 chromatin arrays (12 x 200 bp x 601 oligonucleosomes with H3K9-trimethylated histone H3) (Xenopus | not stated) (UniProt P84233)

degree of association of H3K9me3 chromatin arrays (40 nM) with 5 μM protein, chromatin association assay: 20%
Substance: HP1α-K42 (K42Q mutant of human HP1α) (from UniProt P45973 1-191) (natural protein)
